Reference: patent US20220403048A1 (CANCER RESEARCH TECHNOLOGY, published 2022)

Legend:
[1] = molecular target: T1, recombinant human trimeric ARG2 enzyme (construct not given) (human, UniProt P78540 23-354); assay: cell-based or functional assay
T1 sequence (looked up): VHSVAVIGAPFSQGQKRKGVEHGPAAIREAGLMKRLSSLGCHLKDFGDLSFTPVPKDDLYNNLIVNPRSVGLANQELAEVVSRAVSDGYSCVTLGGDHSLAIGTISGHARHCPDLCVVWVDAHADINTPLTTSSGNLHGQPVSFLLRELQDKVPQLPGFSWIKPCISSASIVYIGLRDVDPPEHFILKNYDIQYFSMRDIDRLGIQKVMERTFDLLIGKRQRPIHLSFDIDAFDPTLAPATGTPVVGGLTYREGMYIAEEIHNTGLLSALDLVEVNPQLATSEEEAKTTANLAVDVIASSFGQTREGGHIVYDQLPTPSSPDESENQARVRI

[2] = molecular target: T2, biotinylated recombinant human trimeric ARG2 enzyme (Avi-huARG2-His10) (human, UniProt P78540 23-354, biotinylated); assay: HTRF epitope competition, scFv titrated, competitor C0020187 IgG, on biotinylated human trimeric ARG2
T2 construct: also called avi-Arg2-His10; bio-ARG2
T2 chain: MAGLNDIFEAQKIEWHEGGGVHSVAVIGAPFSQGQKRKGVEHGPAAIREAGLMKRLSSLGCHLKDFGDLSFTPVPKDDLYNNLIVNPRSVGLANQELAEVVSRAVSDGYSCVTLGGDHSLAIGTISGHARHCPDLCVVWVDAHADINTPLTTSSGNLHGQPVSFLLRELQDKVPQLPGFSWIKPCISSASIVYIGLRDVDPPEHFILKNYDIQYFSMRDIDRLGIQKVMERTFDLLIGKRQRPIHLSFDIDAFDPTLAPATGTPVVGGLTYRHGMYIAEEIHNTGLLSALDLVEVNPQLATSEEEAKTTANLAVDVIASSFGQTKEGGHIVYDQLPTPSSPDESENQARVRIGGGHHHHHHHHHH

[3] = molecular target: T2, biotinylated recombinant human trimeric …; assay: BLI (OctetRED), biotinylated ARG2 on streptavidin, Fab as analyte
Experimental: An Octet Kinetics Buffer (PBS containing 0.01% BSA and 0.002% Tween20) is typically used as the diluent buffer for the analyte samples and as the flow buffer during the dissociation phase. The experimental data is recorded over time as shift in interference pattern (nm) over time, which is directly proportional to the optical thickness at the biosensor tip, which in turn is an approximate measure of the mass of analyte bound. The proprietary Octet Data Analysis software package can then be used to process data and fit binding models to the data sets. Returned association (kₐ, M⁻¹ s⁻¹) and dissociation (kd, s⁻¹) rate constants allow calculation of dissociation (KD, M) affinity constants.
Typically, an analyte titration range of 1.8 to 120 nM was used.

Trimeric human ARG2 EIA IC50 [1] [nM]	IC50 [2] [nM]	Kd [3] [nM]	koff [3] [s⁻¹]	kon [3] [M⁻¹ s⁻¹]	Binder
–	–	3.33	0.00108	326000	C0021141 Fab (Fab, V domains shown, Human Fab) VH: EVQLLESGGGLVQPGGSLRLSCAASGFTFYPDPQGWVRQAPGKGLEWVSAYGYGIGSTYYADSVKGRFTISRDNSKNTLYLQMNSLRAEDTAVYYCARLRADLGLYMDLWGRGTLVTVSS VL: QSVLTQPPSVSAAPGQEVTISCSGSSSNIDNHYVSWYQQLPGTAPKLLIYDNSERPSGIPDRFSGSKSGTSATLGITGLQTGDEADYYCGTWDSSLSALVFGGGTKLTVL
–	–	4.95	0.00146	295000	C0021097 Fab (Fab, V domains shown, Human Fab) VH: EVQLLESGGGLVQPGGSLRLSCAASGFTFSSYAMSWVRQAPGKGLEWVSAISYHPGSTYYADSVKGRFTISRDNSKNTLYLQMNSLRAEDTAVYYCARLRADLGLYMDLWGRGTLVTVSS VL: QSVLTQPPSVSAAPGQKVTISCSGSSSNIGNHYVSWYQQLPGTAPKLLIYNTFARPSGIPDRFSGSKSGTSATLGITGLQTGDEADYYCGTWDSSLSALVFGGGTKLTVL
99.1	27.5	–	–	–	C0021097 scFv (scFv, V domains shown, scFv) VH: EVQLLESGGGLVQPGGSLRLSCAASGFTFSSYAMSWVRQAPGKGLEWVSAISYHPGSTYYADSVKGRFTISRDNSKNTLYLQMNSLRAEDTAVYYCARLRADLGLYMDLWGRGTLVTVSS VL: QSVLTQPPSVSAAPGQKVTISCSGSSSNIGNHYVSWYQQLPGTAPKLLIYNTFARPSGIPDRFSGSKSGTSATLGITGLQTGDEADYYCGTWDSSLSALVFGGGTKLTVL
–	–	2.77	0.0011	399000	C0021142 Fab (Fab, V domains shown, Human Fab) VH: EVQLLESGGGLVQPGGSLRLSCAASGFTFSSYAMSWVRQAPGKGLEWVSAHTHSPGSTYYADSVKGRFTISRDNSKNTLYLQMNSLRAEDTAVYYCARLRADLGLYMDLWGRGTLVTVSS VL: QSVLTQPPSVSAAPGQKVTISCSGSSSNIGNHYVSWYQQLPGTAPKLLIYDNSERPSGIPDRFSGSKSGTSATLGITGLQTGDEADYYCGTWDSSLSALVFGGGTKLTVL
159	130	–	–	–	C0021092 scFv (scFv, V domains shown, scFv) VH: EVQLLESGGGLVQPGGSLRLSCAASGFTFSRYAMSWVRQAPGKGLEWVSAHTHSPGSTYYADSVKGRFTISRDNSKNTLYLQMNSLRAEDTAVYYCARLRADLGLYMDLWGRGTLVTVSS VL: QSVLTQPPSVSAAPGQKVTISCSGSSSNIGNHYVSWYQQLPGTAPKLLIYNSVARPSGIPDRFSGSKSGTSATLGITGLQTGDEADYYCGTWDSSLSALVFGGGTKLTVL
–	–	8.23	0.00114	139000	C0021118 Fab (Fab, V domains shown, Human Fab) VH: EVQLLESGGGLVQPGGSLRLSCAASGFTFSSYAMSWVRQAPGKGLEWVSASLTNPGSTYYADSVKGRFTISRDNSKNTLYLQMNSLRAEDTAVYYCARLRADLGLYMDLWGRGTLVTVSS VL: QSVLTQPPSVSAAPGQKVTISCSGSSSNIGNHYVSWYQQLPGTAPKLLIYDNSERPSGIPDRFSGSKSGTSATLGITGLQTGDEADYYCATYDTNLSALVFGGGTKLTVL
–	–	3.41	0.00107	314000	C0021101 Fab (Fab, V domains shown, Human Fab) VH: EVQLLESGGGLVQPGGSLRLSCAASGFTFSSYAMSWVRQAPGKGPEWVSAISGFSPYYADSVKGRFTISRDNSKNTLYLQMNSLRAEDTAVYYCARLRADLGLYMDLWGRGTLVTVSS VL: QSVLTQPPSVSAAPGQKVTISCSGSSSNIGNHYVSWYQQLPGTAPKLLIYNNRSPTSGIPDRFSGSKSGTSATLGITGLQTGDEADYYCGTWDSSLSALVFGGGTKLTVL
–	–	3.48	0.00154	441000	C0021096 Fab (Fab, V domains shown, Human Fab) VH: EVQLLESGGGLVQPGGSLRLSCAASGFTFSSYAMSWVRQAPGKGLEWVSAISGYSGYYADSVKGRFTISRDNSKNTLYLQMNSLRAEDTAVYYCARLRADLGLYMDLWGRGTLVTVSS VL: QSVLTQPPSVSAAPGQKVTISCSGSSSNIGNHYVSWYQQLPGTAPKLLIYNTERRMSGIPDRFSGSKSGTSATLGITGLQTGDEADYYCGTWDSSLSALVFGGGTKLTVL
134	48.3	–	–	–	C0021098 scFv (scFv, V domains shown, scFv) VH: EVQLLESGGGLVQPGGSLRLSCAASGFTFSSYAMSWVRQAPGKGLEWVSSSTYGAGSTYYADSVKGRFTISRDNSKNTLYLQMNSLRAEDTAVYYCARLRADLGLYMDLWGRGTLVTVSS VL: QSVLTQPPSVSAAPGQKVTISCSGSSSNIGNHYVSWYQQLPGTAPKLLIYNSDAPMSGIPDRFSGSKSGTSATLGITGLQTGDEADYYCGTWDSSLSALVFGGGTKLTVL

Continued, binder first:

Binder	Trimeric human ARG2 EIA IC50 [1] [nM]	IC50 [2] [nM]	Kd [3] [nM]	koff [3] [s⁻¹]	kon [3] [M⁻¹ s⁻¹]
C0021017 scFv (scFv, V domains shown, scFv) VH: EVQLLESGGGLVQPGGSLRLSCAASGFTFYPEYELWVRQAPGKGLEWVSAISGSGGSTYYADSVKGRFTISRDNSKNTLYLQMNSLRAEDTAVYYCARLRADLGLYMDLWGRGTLVTVSS VL: QSVLTQPPSVSAAPGQKVTISCSGSSSNIGNHYVSWYQQLPGTAPKLLIYDNSERPSGIPDRFSGSKSGTSATLGITGLQTGDEADYYCGTWDSSLSALVFGGGTKLTVL	226	122	–	–	–
C0021021 scFv (scFv, V domains shown, scFv) VH: EVQLLESGGGLVQPGGSLRLSCAASGFTFSSYAMSWVRQAPGKGLEWVSSILFSPGSTYYADSVKGRFTISRDNSKNTLYLQMNSLRAEDTAVYYCARLRADLGLYMDLWGRGTLVTVSS VL: QSVLTQPPSVSAAPGQKVTISCSGSSSNIGNHYVSWYQQLPGTAPKLLIYDNSERPSGIPDRFSGSKSGTSATLGITGLQTGDEADYYCGTWDSSLSALVFGGGTKLTVL	151	58.7	–	–	–
C0021021 Fab (Fab, V domains shown, Human Fab) VH: EVQLLESGGGLVQPGGSLRLSCAASGFTFSSYAMSWVRQAPGKGLEWVSSILFSPGSTYYADSVKGRFTISRDNSKNTLYLQMNSLRAEDTAVYYCARLRADLGLYMDLWGRGTLVTVSS VL: QSVLTQPPSVSAAPGQKVTISCSGSSSNIGNHYVSWYQQLPGTAPKLLIYDNSERPSGIPDRFSGSKSGTSATLGITGLQTGDEADYYCGTWDSSLSALVFGGGTKLTVL	–	–	4.24	0.002	473000
C0021032 Fab (Fab, V domains shown, Human Fab) VH: EVQLLESGGGLVQPGGSLRLSCAASGFTFSSYAMSWVRQAPGKGLEWVSAYGYGIGSTYYADSVKGRFTISRDNSKNTLYLQMNSLRAEDTAVYYCARLRADLGLYMDLWGRGTLVTVSS VL: QSVLTQPPSVSAAPGQKVTISCSGSSSNIGNHYVSWYQQLPGTAPKLLIYDNSERPSGIPDRFSGSKSGTSATLGITGLQTGDEADYYCGTWDSSLSALVFGGGTKLTVL	–	–	5.33	0.00228	427000
C0021061 scFv (scFv, V domains shown, scFv) VH: EVQLLESGGGLVQPGGSLRLSCAASGFTFSSYAMSWVRQAPGKGLEWVSAKPTDAGSTYYADSVKGRFTISRDNSKNTLYLQMNSLRAEDTAVYYCARLRADLGLYMDLWGRGTLVTVSS VL: QSVLTQPPSVSAAPGQKVTISCSGSSSNIGNHYVSWYQQLPGTAPKLLIYNTVYPKSGIPDRFSGSKSGTSATLGITGLQTGDEADYYCGTWDSSLSALVFGGGTKLTVL	110	101	–	–	–
C0021089 scFv (scFv, V domains shown, scFv) VH: EVQLLESGGGLVQPGGSLRLSCAASGFTFPYEYWSWVRQAPGKGLEWVSAISGSGGSTYYADSVKGRFTISRDNSKNTLYLQMNSLRAQDTAVYYCARLRADLGLYMDLWGRGTLVTVSS VL: QSVLTQPPSVSAAPGQKVTISCSGSSSNIGNHYVSWYQQLPGTAPKLLIYDNSERPSGIPDRFSGSKSGTSATLGITGLQTGDEADYYCGTWDPTVSRLVFGGGTKLTVL	71.5	133	–	–	–
C0021032 scFv (scFv, V domains shown, scFv) VH: EVQLLESGGGLVQPGGSLRLSCAASGFTFSSYAMSWVRQAPGKGLEWVSAYGYGIGSTYYADSVKGRFTISRDNSKNTLYLQMNSLRAEDTAVYYCARLRADLGLYMDLWGRGTLVTVSS VL: QSVLTQPPSVSAAPGQKVTISCSGSSSNIGNHYVSWYQQLPGTAPKLLIYDNSERPSGIPDRFSGSKSGTSATLGITGLQTGDEADYYCGTWDSSLSALVFGGGTKLTVL	211	67	–	–	–
